Measurements as given in the supplement of paper PMC11316812.
± gives the standard deviation of the averaged measurements.

How the values were obtained:
MCF7 = test: percentage of EdU-negative (G0-arrested) nuclei per well, 72 h; higher = more G0 arrest; details: reference: sequence is the full UniProt precursor, the tested protein was the secreted form or ectodomain
hTERT-HMEC = test: as above; details: reference: sequence is the full UniProt precursor, the tested protein was the secreted form or ectodomain
[1] = protein concentration 0.0225 µM
[2] = protein concentration 0.02225 µM
[3] = protein concentration 0.2225 µM
[4] = protein concentration 0.03125 µM
[5] = protein concentration 0.3125 µM
[6] = protein concentration 0.02025 µM
[7] = protein concentration 0.2025 µM
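Also: secreted proteins added to cultured cells, EdU pulse at the end, nuclei found by Hoechst imaging, EdU status from nuclear versus surrounding ring intensity ratio, PBS as neutral control.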

Sequence	percentage of EdU-negative (MCF7; [1]) [%]	percentage of EdU-negative (MCF7; protein concentration 0.225 µM) [%]	percentage of EdU-negative (hTERT-HMEC; [1]) [%]	percentage of EdU-negative (hTERT-HMEC; protein concentration 0.225 µM) [%]	other results
MRMLLALLALSAARPSASAESHWCYEVQAESSNYPCLVPVKWGGNCQKDRQSPINIVTTKAKVDKKLGRFFFSGYDKKQTWTVQNNGHSVMMLLENKASISGGGLPAPYQAKQLHLHWSDLPYKGSEHSLDGEHFAMEMHIVHEKEKGTSRNVKEAQDPEDEIAVLAFLVEAGTQVNEGFQPLVEALSNIPKPEMSTTMAESSLLDLLPKEEKLRHYFRYLGSLTTPTCDEKVVWTVFREPIQLHREQILAFSQKLYYDKEQTVSMKDNVRPLQQLGQRTVIKSGAPGRPLPWALPALLGPMLACLLAGFLR	24.9 ± 1.8	25.5 ± 1.3	5.11 ± 0.088	7.91 ± 0.34	
MRNSYRFLASSLSVVVSLLLIPEDVCEKIIGGNEVTPHSRPYMVLLSLDRKTICAGALIAKDWVLTAAHCNLNKRSQVILGAHSITREEPTKQIMLVKKEFPYPCYDPATREGDLKLLQLMEKAKINKYVTILHLPKKGDDVKPGTMCQVAGWGRTHNSASWSDTLREVNITIIDRKVCNDRNHYNFNPVIGMNMVCAGSLRGGRDSCNGDSGSPLLCEGVFRGVTSFGLENKCGDPRGPGVYILLSKKHLNWIIMTIKGAV	27.7 ± 2.1	30.8 ± 3.2	5.3 ± 0.55	5.96 ± 1.8	
MRNWLVLLCPCVLGAALHLWLRLRSPPPACASGAGPADQLALFPQWKSTHYDVVVGVLSARNNHELRNVIRSTWMRHLLQHPTLSQRVLVKFIIGAHGCEVPVEDREDPYSCKLLNITNPVLNQEIEAFSLSEDTSSGLPEDRVVSVSFRVLYPIVITSLGVFYDANDVGFQRNITVKLYQAEQEEALFIARFSPPSCGVQVNKLWYKPVEQFILPESFEGTIVWESQDLHGLVSRNLHKVTVNDGGGVLRVITAGEGALPHEFLEGVEGVAGGFIYTIQEGDALLHNLHSRPQRLIDHIRNLHEEDALLKEESSIYDDIVFVDVVDTYRNVPAKLLNFYRWTVETTSFNLLLKTDDDCYIDLEAVFNRIVQKNLDGPNFWWGNFRLNWAVDRTGKWQELEYPSPAYPAFACGSGYVISKDIVKWLASNSGRLKTYQGEDVSMGIWMAAIGPKRYQDSLWLCEKTCETGMLSSPQYSPWELTELWKLKERCGDPCRCQAR [Q8NCR0]					percentage of EdU-negative (MCF7; [2]): 25.7 ± 4.8%; percentage of EdU-negative (MCF7; [3]): 29.39 ± 0.067%; percentage of EdU-negative (hTERT-HMEC; [2]): 5.56 ± 0.58%; percentage of EdU-negative (hTERT-HMEC; [3]): 11 ± 1%
MRPGAPGPLWPLPWGALAWAVGFVSSMGSGNPAPGGVCWLQQGQEATCSLVLQTDVTRAECCASGNIDTAWSNLTHPGNKINLLGFLGLVHCLPCKDSCDGVECGPGKACRMLGGRPRCECAPDCSGLPARLQVCGSDGATYRDECELRAARCRGHPDLSVMYRGRCRKSCEHVVCPRPQSCVVDQTGSAHCVVCRAAPCPVPSSPGQELCGNNNVTYISSCHMRQATCFLGRSIGVRHAGSCAGTPEEPPGGESAEEEENFV					percentage of EdU-negative (MCF7; [4]): 26 ± 2.5%; percentage of EdU-negative (MCF7; [5]): 24.7 ± 3.3%; percentage of EdU-negative (hTERT-HMEC; [4]): 4.24 ± 0.09%; percentage of EdU-negative (hTERT-HMEC; [5]): 4.84 ± 0.11%
MRPLAGGLLKVVFVVFASLCAWYSGYLLAELIPDAPLSSAAYSIRSIGERPVLKAPVPKRQKCDHWTPCPSDTYAYRLLSGGGRSKYAKICFEDNLLMGEQLGNVARGINIAIVNYVTGNVTATRCFDMYEGDNSGPMTKFIQSAAPKSLLFMVTYDDGSTRLNNDAKNAIEALGSKEIRNMKFRSSWVFIAAKGLELPSEIQREKINHSDAKNNRYSGWPAEIQIEGCIPKERS	27.2 ± 0.94	24.7 ± 0.92	4.35 ± 0.59	6.31 ± 1.2	
MRPLLCALTGLALLRAAGSLAAAEPFSPPRGDSAQSTACDRHMAVQRRLDVMEEMVEKTVDHLGTEVKGLLGLLEELAWNLPPGPFSPAPDLLGDGF [Q5JTB6]	28.1 ± 2.1	26 ± 1.2	4.3 ± 0.46	5.25 ± 0.17	
MRPLLLLALLGWLLLAEAKGDAKPEDNLLVLTVATKETEGFRRFKRSAQFFNYKIQALGLGEDWNVEKGTSAGGGQKVRLLKKALEKHADKEDLVILFADSYDVLFASGPRELLKKFRQARSQVVFSAEELIYPDRRLETKYPVVSDGKRFLGSGGFIGYAPNLSKLVAEWEGQDSDSDQLFYTKIFLDPEKREQINITLDHRCRIFQNLDGALDEVVLKFEMGHVRARNLAYDTLPVLIHGNGPTKLQLNYLGNYIPRFWTFETGCTVCDEGLRSLKGIGDEALPTVLVGVFIEQPTPFVSLFFQRLLRLHYPQKHMRLFIHNHEQHHKAQVEEFLAQHGSEYQSVKLVGPEVRMANADARNMGADLCRQDRSCTYYFSVDADVALTEPNSLRLLIQQNKNVIAPLMTRHGRLWSNFWGALSADGYYARSEDYVDIVQGRRVGVWNVPYISNIYLIKGSALRGELQSSDLFHHSKLDPDMAFCANIRQQDVFMFLTNRHTLGHLLSLDSYRTTHLHNDLWEVFSNPEDWKEKYIHQNYTKALAGKLVETPCPDVYWFPIFTEVACDELVEEMEHFGQWSLGNNKDNRIQGGYENVPTIDIHMNQIGFEREWHKFLLEYIAPMTEKLYPGYYTRAQFDLAFVVRYKPDEQPSLMPHHDASTFTINIALNRVGVDYEGGGCRFLRYNCSIRAPRKGWTLMHPGRLTHYHEGLPTTRGTRYIAVSFVDP					percentage of EdU-negative (MCF7; [6]): 27 ± 1.9%; percentage of EdU-negative (MCF7; [7]): 27.54 ± 0.046%; percentage of EdU-negative (hTERT-HMEC; [6]): 4.5 ± 0.15%; percentage of EdU-negative (hTERT-HMEC; [7]): 7.829 ± 0.054%
